Data reported in the Human Domainome abundance scans (Beltran et al. 2025).
± gives the uncertainty stated by the source.

B1: Receptor-interacting serine/threonine-protein kinase 2, residues 438 to 518; numbered along this chain, O43353 (parent)
chain: QWIQSKREDIVNQMTEACLNQSLDALLSRDLIMKEDYELVSTKPTRTSKVRQLLDTTDIQGEEFAKVIVQKLKDNKQMGLQ

Variants of: B1
Experiment: abundance fitness (aPCA) (normalised: wild type 0, dead -1); higher = more abundant; growth selection in yeast, the domain comes from the species named
Conditions: Homo sapiens

K49E and R29E are within error of each other in abundance fitness: -0.576 ± 0.33 for the first, -0.152 ± 0.12 for the second.

R29K and R29Q are within error of each other in abundance fitness: 0.002 ± 0.17 for the first, -0.059 ± 0.091 for the second.

First: R29H
Second: I10A
The abundance fitness of the first is higher: -0.345 ± 0.17 for the first, -1.04 ± 0.31 for the second.

Going from I10T to I10L, the abundance fitness rises from -0.697 ± 0.15 to -0.264 ± 0.087.

I10V and I10M are within error of each other in abundance fitness: -0.628 ± 0.12 for the first, -0.421 ± 0.23 for the second.

I10S and I10F are within error of each other in abundance fitness: -0.618 ± 0.098 for the first, -0.877 ± 0.47 for the second.

First: K71Q
Second: K71D
The abundance fitness of the first is higher: -0.086 ± 0.1 for the first, -0.381 ± 0.12 for the second.

K71M and K71G are within error of each other in abundance fitness: -0.113 ± 0.11 for the first, -0.281 ± 0.073 for the second.

K71V and K71A are within error of each other in abundance fitness: 0.151 ± 0.066 for the first, 0.022 ± 0.074 for the second.

K71L and C18N are within error of each other in abundance fitness: -0.289 ± 0.061 for the first, -0.288 ± 0.16 for the second.

C18M and C18F are within error of each other in abundance fitness: -0.264 ± 0.23 for the first, -0.375 ± 0.19 for the second.

C18P and I3M are within error of each other in abundance fitness: -0.299 ± 0.074 for the first, -0.292 ± 0.17 for the second.

I3D and I3P are within error of each other in abundance fitness: -0.051 ± 0.34 for the first, -0.194 ± 0.24 for the second.

I3G and L72R are within error of each other in abundance fitness: -0.87 ± 0.25 for the first, -0.633 ± 0.12 for the second.

L72T and L72P are within error of each other in abundance fitness: -0.448 ± 0.13 for the first, -0.54 ± 0.077 for the second.

L72C and L72S are within error of each other in abundance fitness: -0.713 ± 0.34 for the first, -0.587 ± 0.072 for the second.

L53C and L53F are within error of each other in abundance fitness: -0.433 ± 0.12 for the first, -0.785 ± 0.24 for the second.

L53P and L53Q are within error of each other in abundance fitness: -0.423 ± 0.064 for the first, -0.567 ± 0.12 for the second.

Compared with L53Y, L53G is higher in abundance fitness: -0.821 ± 0.18 for the first, -0.433 ± 0.057 for the second.

Compared with L53S, S41N is higher in abundance fitness: -0.679 ± 0.086 for the first, 0.094 ± 0.099 for the second.

Compared with S41W, S41V is higher in abundance fitness: -0.466 ± 0.1 for the first, 0.11 ± 0.05 for the second.

Going from S41D to S41C, the abundance fitness rises from -0.448 ± 0.098 to -0.042 ± 0.07.

S41P and E35F are within error of each other in abundance fitness: -0.599 ± 0.085 for the first, -0.693 ± 0.19 for the second.

E35V and E35Q are within error of each other in abundance fitness: -0.408 ± 0.097 for the first, -0.233 ± 0.1 for the second.

First: E35R
Second: E35N
The abundance fitness of the first is higher: -0.043 ± 0.073 for the first, -0.521 ± 0.17 for the second.

W2V and A65C are within error of each other in abundance fitness: -0.632 ± 0.1 for the first, -0.624 ± 0.12 for the second.

Going from A65L to A65G, the abundance fitness rises from -0.949 ± 0.097 to -0.6 ± 0.058.

A65R and A65K are within error of each other in abundance fitness: -0.649 ± 0.077 for the first, -0.708 ± 0.17 for the second.

D36L and D36M are within error of each other in abundance fitness: -0.791 ± 0.11 for the first, -0.711 ± 0.22 for the second.

D36H and D36N are within error of each other in abundance fitness: -0.194 ± 0.14 for the first, -0.678 ± 0.37 for the second.

Compared with D36Q, L26D is lower in abundance fitness: 0.121 ± 0.084 for the first, -0.833 ± 0.34 for the second.

Going from L26G to L26Q, the abundance fitness rises from -0.572 ± 0.081 to -0.31 ± 0.061.

L26C and L26M are within error of each other in abundance fitness: -0.618 ± 0.11 for the first, -0.662 ± 0.13 for the second.

Going from L26H to D58A, the abundance fitness rises from -0.289 ± 0.18 to 0.021 ± 0.053.

D58T and D58E are within error of each other in abundance fitness: -0.015 ± 0.07 for the first, 0.107 ± 0.1 for the second.

Compared with D58Y, D58V is higher in abundance fitness: -0.259 ± 0.17 for the first, 0.041 ± 0.069 for the second.

Compared with I59Y, A17E is higher in abundance fitness: -0.342 ± 0.29 for the first, 0.182 ± 0.11 for the second.

A17V and A17H are within error of each other in abundance fitness: 0.004 ± 0.067 for the first, -0.043 ± 0.11 for the second.

A17P and Q70H are within error of each other in abundance fitness: -0.33 ± 0.057 for the first, -0.351 ± 0.3 for the second.

Q70I and Q70V are within error of each other in abundance fitness: -0.614 ± 0.42 for the first, -0.714 ± 0.094 for the second.

D55Y and D55T are within error of each other in abundance fitness: -0.445 ± 0.071 for the first, -0.313 ± 0.071 for the second.

Going from D55I to N12F, the abundance fitness falls from -0.168 ± 0.11 to -0.62 ± 0.16.

N12E and N12A are within error of each other in abundance fitness: 0.199 ± 0.21 for the first, 0.073 ± 0.093 for the second.

N12S and N12Y are within error of each other in abundance fitness: -0.213 ± 0.071 for the first, -0.382 ± 0.4 for the second.

Going from N12V to N12K, the abundance fitness rises from -0.374 ± 0.086 to -0.039 ± 0.15.

First: A25Q
Second: A25K
The abundance fitness of the first is higher: -0.43 ± 0.096 for the first, -0.732 ± 0.15 for the second.

A25T and A25V are within error of each other in abundance fitness: -0.174 ± 0.075 for the first, -0.133 ± 0.092 for the second.

A25H and A25I are within error of each other in abundance fitness: -0.225 ± 0.16 for the first, -0.339 ± 0.14 for the second.

Compared with A25S, V11A is lower in abundance fitness: -0.233 ± 0.057 for the first, -0.49 ± 0.075 for the second.

V11S and V11P are within error of each other in abundance fitness: -0.575 ± 0.071 for the first, -0.503 ± 0.087 for the second.

K66V and K66F are within error of each other in abundance fitness: -0.702 ± 0.074 for the first, -1.05 ± 0.47 for the second.

K66L and V40F are within error of each other in abundance fitness: -0.555 ± 0.062 for the first, -0.436 ± 0.18 for the second.

First: V40M
Second: V40H
The abundance fitness of the first is lower: -0.815 ± 0.22 for the first, 0.095 ± 0.37 for the second.

First: V40P
Second: K43Q
The abundance fitness of the first is lower: -0.732 ± 0.11 for the first, -0.098 ± 0.14 for the second.

K43I and K43F are within error of each other in abundance fitness: -0.535 ± 0.28 for the first, -0.466 ± 0.14 for the second.

K43T and K43D are within error of each other in abundance fitness: -0.89 ± 0.25 for the first, -1.06 ± 0.37 for the second.

K43S and K43Y are within error of each other in abundance fitness: -0.46 ± 0.088 for the first, -1 ± 0.48 for the second.

Q13T and Q13S are within error of each other in abundance fitness: -0.19 ± 0.28 for the first, 0.072 ± 0.16 for the second.

Q13E and M78I are within error of each other in abundance fitness: -0.027 ± 0.27 for the first, -0.372 ± 0.5 for the second.

S5V and S5T are within error of each other in abundance fitness: -0.384 ± 0.16 for the first, -0.315 ± 0.14 for the second.

S5G and S5F are within error of each other in abundance fitness: -0.177 ± 0.24 for the first, -0.636 ± 0.43 for the second.

S5Q and Q60A are within error of each other in abundance fitness: -0.088 ± 0.23 for the first, -0.08 ± 0.053 for the second.

Q60H and Q60C are within error of each other in abundance fitness: -0.199 ± 0.089 for the first, -0.054 ± 0.065 for the second.

Q60F and Q60M are within error of each other in abundance fitness: -0.378 ± 0.16 for the first, -0.188 ± 0.1 for the second.

Q60R and T42S are within error of each other in abundance fitness: -0.057 ± 0.047 for the first, 0.022 ± 0.061 for the second.

T42E and T42Y are within error of each other in abundance fitness: -0.158 ± 0.29 for the first, -0.406 ± 0.15 for the second.

T42I and T42A are within error of each other in abundance fitness: -0.225 ± 0.16 for the first, -0.069 ± 0.075 for the second.

Q81H and T47M are within error of each other in abundance fitness: -0.419 ± 0.19 for the first, -0.431 ± 0.33 for the second.

Going from T47H to T47C, the abundance fitness falls from 0.111 ± 0.17 to -0.254 ± 0.11.

Compared with T47R, T47L is lower in abundance fitness: 0.049 ± 0.051 for the first, -0.373 ± 0.097 for the second.

T47W and T47G are within error of each other in abundance fitness: -0.333 ± 0.087 for the first, -0.185 ± 0.064 for the second.

First: D9G
Second: D9I
The abundance fitness of the first is lower: -0.532 ± 0.092 for the first, 0.255 ± 0.16 for the second.

D9E and D9Y are within error of each other in abundance fitness: -0.317 ± 0.15 for the first, -0.107 ± 0.15 for the second.

D9M and D9A are within error of each other in abundance fitness: -0.328 ± 0.19 for the first, -0.288 ± 0.095 for the second.

First: L27P
Second: L27M
The abundance fitness of the first is lower: -0.328 ± 0.07 for the first, 0.128 ± 0.24 for the second.

L27D and L27Q are within error of each other in abundance fitness: -0.198 ± 0.13 for the first, -0.293 ± 0.22 for the second.

L27G and L19S are within error of each other in abundance fitness: -0.609 ± 0.071 for the first, -0.792 ± 0.16 for the second.

First: L19P
Second: L19F
The abundance fitness of the first is higher: -0.3 ± 0.16 for the first, -0.833 ± 0.27 for the second.

L19I and L19N are within error of each other in abundance fitness: 0.024 ± 0.18 for the first, -0.454 ± 0.34 for the second.

L19K and L19Y are within error of each other in abundance fitness: -0.884 ± 0.34 for the first, -0.607 ± 0.24 for the second.

L19A and P44N are within error of each other in abundance fitness: -0.447 ± 0.1 for the first, -0.196 ± 0.29 for the second.

P44R and P44E are within error of each other in abundance fitness: -0.265 ± 0.052 for the first, -0.141 ± 0.1 for the second.

Going from D30P to D30G, the abundance fitness rises from -1.08 ± 0.24 to 0.122 ± 0.055.

In the case of D30Y, the abundance fitness is reported as -0.84 ± 0.21.
